Results published in the supplement of paper PMC12764529.
± gives the half width of the 95% confidence interval.

Tests used:
[1] = folding stability dG unfold from trypsin proteolysis; higher = more stable
Outline: (§1)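 Unfolding free energy was derived, per protease or combined, by relating Bayesian-fitted K50 values from sequencing counts to a sequence-predicted unfolded-state K50 and a shared folded-state K50. The underlying digests exposed cysteine-free mini-proteins under 80 residues, in a PA-tagged cDNA display construct, to trypsin and chymotrypsin at 11 threefold-diluted concentrations and to a no-protease condition. A filter kept only designs with AlphaFold2 dimer inter-PAE above 15.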

[2] = folding stability dG unfold from chymotrypsin proteolysis; higher = more stable
Outline: as §1

[3] = folding stability dG unfold (combined trypsin and chymotrypsin); higher = more stable
Outline: as §1

Row | Sequence | folding stability dG unfold [1] [kcal/mol] | folding stability dG unfold [2] [kcal/mol] | folding stability dG unfold [3] [kcal/mol]
1 | SAGGSAGGPLVVGRGTFPDGFTADAELRVPDSSETFYRTIEPGASLDEIPENYEVANITLSPAGSAGGSAGG [r6_758_TrMRF] | -0.289 ± 0.12 | -0.176 ± 0.13 | -0.162 ± 0.13
2 | SAGGMITLTTKTELIGSYRVTYSVTVDPVDDSVVTSTHVTVTPLPPPPPPLPPVPPENPVLPSPRLESAGGS [r8_234_JUSTAS] | 0.355 ± 0.15 | 0.56 ± 0.42 | 0.608 ± 0.2
3 | SAGGSAGGSAGSVTVTFISLEEGERYLVLTELRFGDYGIESRSTRIEVSDEKLEELKKAFSAGGSAGGSAGG [r11_47_TrMRF] | 1.52 ± 0.072 | 2.12 ± 0.036 | 2 ± 0.12
4 | SAGGSAGGSSMKVEVTVEPVDPARGLYRVTITLYDPNSDTPLKTVPVLAESPEEIEAAILELLSAGGSAGGS [r12_26_JUSTAS] | 2.55 ± 0.11 | 2.91 ± 0.05 | 2.67 ± 0.12
5 | SAGGSAGGSAGGSDNSITLDFFFNNYYIKITFNPWNGNLEIDEVQKVPPPPKPKDPGDKSAGGSAGGSAGGS [r4_21_TrROS] | 2.71 ± 0.13 | 3.19 ± 0.091 | 2.94 ± 0.22
6 | SAGGMSVSITVTVTPTEVRVVENPTNGVNTAFTETTVTVTVNHPSSVSPEEKAALIAAVKAANPGAASAGGS [r8_306_JUSTAS] | 2.86 ± 0.57 | 1.92 ± 0.57 | 2.43 ± 0.49
7 | ITIRIPPNGNIRIEMIDPNGKWWTYTFPVKDPEENLQRLKDIIRDFFPGFEDVDVKITEVEDGWVTITVPLS [r1_389_TrROS] | 4.05 ± 0.17 | 4.96 ± 0.23 | 4.76 ± 0.21
8 | SAGGMVEVTYDPETGTLTILLPSPSGTLGPEAVEAAARLIRELYPEAEVEVEPLPDNTVRLRVRFPGGSAGG [r13_291_TrMRF] | 4.22 ± 0.093 | 5.38 ± 0.23 | 4.96 ± 0.14
9 | SAGGSAGGSSVSVSFPSSVTKVEPELNDPNLTTFFESPGLVIKVTVVPGTGKVIIEKKPLSELSAGGSAGGS [r12_858_JUSTAS] | 0.858 ± 0.023 | -0.663 ± 0.13 | 0.342 ± 0.053
10 | SAGGSAGGSAGGMSPGSSSTTVTTTTSPNGTVVTTTTTTTLDPNSNTTSSTTTTTTTTTSAGGSAGGSAGGS [r10_1164_JUSTAS] | 3.15 ± 0.25 | 1.74 ± 0.18 | 2.42 ± 0.25
11 | SAGGEIPPNAKIDELEISPGSGYIRIKVEFYDPDGKPIWKMTITIPIKPVPRPSPEDQKEQNKKNKKSAGGS [r16_697_TrROS] | 1.36 ± 0.18 | 2.68 ± 0.12 | 2.39 ± 0.67
12 | SAGGSAGGSAGGMTPIEKEEPHHHMTFTREGDTVSLETFPGSGSIRKTLPSEEEVEKLLSAGGSAGGSAGGS [r10_1104_JUSTAS] | -0.413 ± 0.071 | 0.156 ± 0.096 | 0.00761 ± 0.11
13 | SAGGSAGGSAGGSVPSVKLPKVGLKTDPVSSVLDFGEEKGDPVSVSIHLTLFLPDGTILLSAGGSAGGSAGG [r11_890_JUSTAS] | 0.161 ± 0.082 | 0.881 ± 0.12 | 0.672 ± 0.17
14 | SMKTITIPADTLSPEEIEALLKELGFDPEKIKISTEGDKLVVTVPDMIVFLTPPPPVPTVPPTNPERLAALS [r1_57_JUSTAS] | 0.643 ± 0.036 | -0.141 ± 0.36 | 0.31 ± 0.15
15 | SKIKIEVDEETGVITVTVEVDNLSEEEILDKLKEELEKLGFEVEVKVVKIEEVNGKVVVTVEIKIKPEKLSA [r9_347_TrROS_Hall] | 1.75 ± 0.11 | 0.9 ± 0.073 | 1.45 ± 0.093
16 | SAGGSAGGSAGGMSVTVSREKLPDGSYLVTVTTEVGGGPVTTPYRVPPSLSSAEEVVEKLSAGGSAGGSAGG [r7_75_JUSTAS] | -0.0439 ± 0.14 | -0.659 ± 0.51 | -0.23 ± 0.2
17 | SAGGSPEEIANEVKEKILKELPPGVKVEVSVEVTPEGATVTVKVPEGKEYTVKVEGDKIVEIKLLKKSAGGS [r8_287_JUSTAS] | 0.921 ± 0.081 | 1.92 ± 0.057 | 1.51 ± 0.28
18 | SAGGSAGGSLTIRFPEELSPEEAVELAEGLVRELFPEDVPVTVTVVFYDPETGEELTIPAELASAGGSAGGS [r12_1051_TrMRF] | 1.49 ± 0.039 | 1.35 ± 0.025 | 1.43 ± 0.044
19 | SAGGKKIKITVKELKKKLEEEGYEIEEIEIYNKKTGKKIKTIKEGDVIELPENVKNVVIKVKIKKKKSAGGS [r8_243_TrROS_Hall] | 2.16 ± 0.19 | 2.86 ± 0.17 | 2.57 ± 0.34
20 | SAGKKYKVKKKITLTLEDGSKITIEIVENEDGTVEIKITDSNGKTRTITIPKEKLENMSLEELLKLLKSAGG [r19_47_TrROS_Hall] | 1.76 ± 0.1 | 1.73 ± 0.13 | 1.92 ± 0.22
21 | SAKMSPEMRELVERLQDLYNENGYKVKIEMSNKPGMIRINVQMPNPRKKRKIKEALRGDGFPITRVEIYSAG [r14_284_TrROS] | 1.62 ± 0.077 | 0.929 ± 0.25 | 1.36 ± 0.23

Row | Sequence | folding stability dG unfold [1] [kcal/mol] | folding stability dG unfold [2] [kcal/mol] | folding stability dG unfold [3] [kcal/mol]
22 | SAGGGVPLTRSEPLGEIEFPEENIKLKISRYTSPLDGTEYIEITTDYGEGTSTSIYPPGEIEEILGGSAGGS [r16_603_JUSTAS] | 0.666 ± 0.12 | 1.39 ± 0.19 | 0.909 ± 0.18
23 | SAGGSAGGSAGDIDPEDDIFYLTVRLKDGVPFVLPVRYDDIPFIPPEFVEEATFHKPKDISAGGSAGGSAGG [r11_779_TrMRF] | 0.365 ± 0.096 | 0.0924 ± 0.18 | 0.246 ± 0.083
24 | SAGGSAGGSAGGKMRLYRFNLKTNKIEEVEAEPGEVIKITFPGKEIVLVVKDGKIELIPSAGGSAGGSAGGS [r10_817_TrROS_Hall] | 0.464 ± 0.13 | 1.2 ± 0.22 | 0.884 ± 0.21
25 | SAGGSAGGSAKVKIVIKNENGEEFEIEMSEEELKKKLKPGDKVKIKIEKVNGKLKITIEKESAGGSAGGSAG [r3_86_TrROS_Hall] | 1.17 ± 0.12 | 2.11 ± 0.16 | 2.02 ± 0.28
26 | SAGGSPNIKITSKEKEGSKLKYTIQTPDKTITIEYSEGKATFKFPDGSTKTLTGKGSLEKAIKEAVLSSAGG [r13_98_JUSTAS] | 0.936 ± 0.11 | 1.99 ± 0.25 | 1.59 ± 0.2
27 | SAGGKKPKVKKVKVKLTLVDPETGEEVEVEAELYELPDGYVVLTVRNKKTGKTYRFVFKDGKLYLEPVSAGG [r13_117_TrROS_Hall] | 2.88 ± 0.1 | 4.46 ± 0.11 | 4.12 ± 0.35
28 | SAGGSSMEVEIDTSKSTTTYTHPSGEKVATRSLVLTPPSPGDPLRFLNVEFEKLPDGSVVVKKIVGSAGGSA [r2_362_JUSTAS] | -0.338 ± 0.17 | -0.142 ± 0.32 | -0.0806 ± 0.22
29 | SAGGSAMKVDPSTKVVTVTDPKTGKEYRVNLPDVPPEKGVEVKVDNGKVTVKTEEGVRVIPYSELKSAGGSA [r15_864_JUSTAS] | 0.609 ± 0.044 | 0.538 ± 0.12 | 0.71 ± 0.097
30 | SAGGSAGGSAGGKVVKFTRPDGKPVDAKKILSYDPDKPKLYVLVEDEGPVELREVDADKDSAGGSAGGSAGG [r7_236_TrMRF] | -0.245 ± 0.22 | 0.379 ± 0.32 | 0.161 ± 0.23
31 | SAETVVTPRRSTLPDGTRLEEDVVTLPDGTTVTPVRVVRRDPETGREVVEFWVRTTDPATGTTTTTPLPSAG [r14_324_JUSTAS] | -0.198 ± 0.12 | 1.72 ± 0.059 | 1.23 ± 0.051
32 | SAGGSIVDRIRKILKEYGYTAQVERNGDGITIVVQFNKEQRKKIVSEIQEDFGYPIKIEVMPPGQELSAGGS [r16_514_TrROS] | 1.97 ± 0.06 | 1.94 ± 0.027 | 2.03 ± 0.11
33 | SAGGSAGGSAGGMTPEEIEAALQKAREENSEDEEFTVTVTDPETGEVLTIRIDPNSVTIESAGGSAGGSAGG [r7_45_JUSTAS] | 1.15 ± 0.034 | -0.0816 ± 0.11 | 0.719 ± 0.08
34 | SAGGSAGGSAGGSPVSPKIVTTDPGPNVITTVYYSPEDGKVLSTSTTVVPPLPPGEILTSAGGSAGGSAGGS [r10_1051_JUSTAS] | 1.45 ± 0.085 | 0.817 ± 0.21 | 1 ± 0.32
35 | SAGGKGPKKIILPLKFKIKTKPNEKKSKIKFKLSLKLFPKAKKVEVKSSIKPLKNNYALLDFDIVIEASAGG [r13_872_TrMRF] | 3.53 ± 0.23 | 3.6 ± 0.13 | 3.56 ± 0.45
36 | SAGGSAGGSLSLPEGFKLSSLVSVEELPGVLRIYFLDPEKPLLYEVVYDLETGEQTVERIPIGSAGGSAGGS [r12_206_JUSTAS] | 2.43 ± 0.065 | 2.6 ± 0.051 | 2.5 ± 0.072
37 | SAMTPETERKLLEAPKTGDVEAVREAAEEIEKEYPGKGLVVTVTVSPLSDGTWEVEVTVELPPNLPELASAG [r14_690_JUSTAS] | 0.702 ± 0.12 | 0.27 ± 0.097 | 0.437 ± 0.38
38 | SAGGSMIITRDPATGLVTVYKNGKKVKTIEVPPGNPVGVSLSYNPSPNTYTVTLTTPESPVKISNLSAGGSA [r2_399_JUSTAS] | 0.855 ± 0.032 | 1.31 ± 0.083 | 1.15 ± 0.06
39 | SAGGMITLEIELEDGTKIKIEITRLVSYDEEKGYAIFEAKITVEKDGKKFEKTITIIVKKGTKPGEIISAGG [r13_823_TrROS_Hall] | 4.45 ± 0.43 | 4.01 ± 0.25 | 4.19 ± 0.38
40 | SAGGSAGIKAVLNLGDKPVLVLIEPLPDGSFPVIAIFADDGSKVEKVIPASDIGELLSLDPDKLTFSAGGSA [r15_629_TrMRF] | 0.859 ± 0.035 | 0.0558 ± 0.26 | 0.6 ± 0.18
41 | SMVVIEFETKKPKEQAEKAVEKAKKEIPELEEVLEIEVEEFPDFLKVKIVLKGGKITPEDLEKLKEFLEKSA [r9_195_TrMRF] | 2.67 ± 0.27 | 2.4 ± 0.071 | 2.63 ± 0.27
42 | SAKLIRDLLRDHGFPIKNIDVQKNPNGKTYISIEIKMYTPEYKNDEGRPKPRPVEMTATFPADDLLDALSAG [r14_16_TrROS] | 0.91 ± 0.16 | 0.507 ± 0.25 | 0.676 ± 0.25
